For the assay, the target named is proteasome αΔ12-subunit (Thermoplasma acidophilum, UniProt P25156 13-233). As to the kind of experiment: native gel or EMSA.

From publication PMC7612055 (Nature chemistry, 2021) come the findings set out here.

proteasome αΔ12-subunit, sequence (P25156 13-233, stated change not applied): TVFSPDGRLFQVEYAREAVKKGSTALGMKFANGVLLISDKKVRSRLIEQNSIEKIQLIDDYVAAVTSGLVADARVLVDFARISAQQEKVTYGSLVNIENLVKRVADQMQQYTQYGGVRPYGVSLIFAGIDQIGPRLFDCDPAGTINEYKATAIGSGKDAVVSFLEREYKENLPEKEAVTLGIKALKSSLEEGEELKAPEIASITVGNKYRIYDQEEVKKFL

B1: proteasome β-subunit (natural protein)
chain: TTTVGITLKDAVIMATERRVTMENFIMHKNGKKLFQIDTYTGMTIAGLVGDAQVLVRYMKAELELYRLQRRVNMPIEAVATLLSNMLNQVKYMPYMVQLLVGGIDTAPHVFSIDAAGGSVEDIYASTGSGSPFVYGVLESQYSEKMTVDEGVDLVIRAISAAKQRDSASGGMIDVAVITRKDGYVQLPTDQIESRIRKLGLIL
For the molecule B1, the binding result is “binds”.
